The experiment deals with TCR on the membrane of A2b T cells (rat). The experiment can be described thus: acceptor-photobleaching FRET; distance is between Rho on the peptide and FITC on the anti-TCR antibody.

A value given as a limit tells only on which side of the number the result lay.

With AVGIGALFLGFLGAAGSTMGARSMTLTVQARQL (modifications not checked) [FP (full length) conjugated to Rhodamine], the donor-acceptor distance inferred from FRET is below 50 Å.

These data come from patent publication US20090270312A1, “HIV-I GP41 FUSION PEPTIDES FOR IMMUNOMODULALTION” (priority 2005, published 2009).
